Columns and labels:
PHD2 [1] = target: T1, PHD2 (Homo sapiens, UniProt Q9GZT9); test: PHD binding assay (pull down of PHD2 with GST-HIF-1α (531-826)); conditions: lysates from cells transfected with OS-9 and PHD2 vectors versus PHD2 vector alone; FIG. 7B
T1 construct: expressed in transfected cells; host or cells: 293 cells (whole cell lysate used as the enzyme source)
Protocol: For in vitro VHL binding assay, preincubated GstA and 5 μl of [^35S]methionine-labeled VHL protein were mixed in a total volume of 300 μl of PBS-T with 1 mM desferrioxamine and incubated at 4° C. for 90 min. 20 ul of glutathione-Sepharose-4B beads (Amersham Biosciences) was added and incubated for 30 min with rotation. Beads were washed three times with PBS-T. Proteins were eluted in Laemmli sample buffer, fractionated by SDS-PAGE, and detected by autoradiography. For PHD binding assay, […] of GST-HIF-1α was preincubated with 50 μg of -whole cell lysate in a total volume of 50 μl with PBS-T at 30° C. for 10 min with or without 1 mM DMOG. The reaction was terminated by addition of desferrioxamine to 1 mM, 20 μl of glutathione-Sepharose-4B beads were added and incubated for 30 min. The beads were washed three times with PBS-T. Bound protein was eluted in Laemmli sample buffer, fractionated by SDS-PAGE, and subjected to immunoblot assay using antibodies against PHD2 (Novus Biologicals Inc.) or GST (Amersham).

HIF-1α [2] = test: In vitro interaction (GST pull-down) assay of OS-9 with GST-HIF-1α fusion proteins; assay type: binding, human; conditions: FIG. 2A
Protocol: (§1) To prepare GST fusion proteins, E. coli BL21-Gold(DE3)pLysS (Stratagene) was transformed with a pGEX expression vector and treated for 4 h with 0.5 mM isopropyl-D-thiogalactoside. Pelleted cells were lysed by sonication in PBS containing 1% Triton X-100 and Complete protease inhibitor cocktail (Roche). After centrifugation, supernatants were applied to glutathione-Sepharose 4B beads (Amersham Pharmiacia Biotech). GST fusion proteins were eluted with 10 mM reduced glutathione in 50 mM Tris-HCl (pH 8.0) and stored at −80° C. The concentration and purity of eluates were determined by the Bradford method and by SDS-PAGE. [^35S]methionine-labeled proteins were generated in reticulocyte lysates with plasmids encoding HA-OS-9 or FLAG-VHL using the TNT T7 coupled transcription/translation system (Promega). Ten μl of in vitro-translated ^35S-labeled protein was mixed with 4 μg of GST or GST-HIF-1α fusion protein (Mahon et al. 2001) in a final volume of 200 μof PBS-T binding buffer (Dulbecco's PBS [pH 7.4], 0.1% Tween-20). The binding reaction was performed at 4° C. for 2 h with rotation followed by the addition of […] pre-washed glutathione-Sepharose 4B beads. After 30 min of mixing on a rotator, the beads were washed three times with PBS-T. Proteins were eluted in Laemmli sample buffer and analyzed by SDS-PAGE followed by autoradiography.

HIF-1α [3] = target: T2, HIF-1α (Homo sapiens, UniProt Q16665); test: Co-immunoprecipitation of HA-OS-9 and HIF-1α in 293 cells; assay type: cell-based; conditions: anti-HA immunoprecipitation, FIG. 2B
Protocol: (§2) 293 cells (3×10^6 cells per […] plate) were transfected with Lipofectamine Plus and a total of 10 μg of expression vectors. After 24 h, cells were lysed with PBS/0.1% Tween-20. 400 μg of whole cell lysate (brought to a final volume of 200 μl with lysis buffer) were immunoprecipitated using anti-HA affinity matrix (Roche) followed by immunoblot assay using antibody against HIF-1α (Zhong et al. 1999), PHD 1-3 (Novus Biologicals Inc.), or HA (Roche).
Target sequence in this assay (Q16665 whole entry): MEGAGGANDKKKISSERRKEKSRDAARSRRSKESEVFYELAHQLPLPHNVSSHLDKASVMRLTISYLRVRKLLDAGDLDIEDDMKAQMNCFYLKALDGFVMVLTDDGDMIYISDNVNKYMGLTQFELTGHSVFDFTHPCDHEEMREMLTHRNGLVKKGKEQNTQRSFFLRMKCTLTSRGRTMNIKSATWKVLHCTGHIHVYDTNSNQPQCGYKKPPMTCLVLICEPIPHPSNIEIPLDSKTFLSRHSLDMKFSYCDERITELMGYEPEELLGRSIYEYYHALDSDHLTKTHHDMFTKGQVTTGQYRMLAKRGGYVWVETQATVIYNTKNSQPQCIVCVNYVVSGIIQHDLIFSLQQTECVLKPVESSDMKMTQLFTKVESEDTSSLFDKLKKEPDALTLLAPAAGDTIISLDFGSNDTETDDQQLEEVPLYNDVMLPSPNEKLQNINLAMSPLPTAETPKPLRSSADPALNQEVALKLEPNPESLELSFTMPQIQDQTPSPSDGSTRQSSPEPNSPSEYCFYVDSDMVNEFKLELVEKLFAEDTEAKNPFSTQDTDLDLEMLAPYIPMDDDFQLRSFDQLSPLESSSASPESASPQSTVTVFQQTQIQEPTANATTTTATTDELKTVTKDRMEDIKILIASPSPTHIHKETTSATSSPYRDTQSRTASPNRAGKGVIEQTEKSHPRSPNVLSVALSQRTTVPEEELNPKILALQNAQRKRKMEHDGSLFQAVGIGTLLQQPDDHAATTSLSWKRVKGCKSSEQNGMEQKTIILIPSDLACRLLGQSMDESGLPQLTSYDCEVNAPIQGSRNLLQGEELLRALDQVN

PHD1 = target: T3, PHD1 (Homo sapiens, UniProt Q96KS0); test: Co-immunoprecipitation of HA-OS-9 with PHD1 in 293 cells; assay type: cell-based; conditions: anti-HA immunoprecipitates, immunoblot; FIG. 5
T3 construct: expressed in transfected cells; host or cells: 293 cells
T3 sequence (Q96KS0 whole entry): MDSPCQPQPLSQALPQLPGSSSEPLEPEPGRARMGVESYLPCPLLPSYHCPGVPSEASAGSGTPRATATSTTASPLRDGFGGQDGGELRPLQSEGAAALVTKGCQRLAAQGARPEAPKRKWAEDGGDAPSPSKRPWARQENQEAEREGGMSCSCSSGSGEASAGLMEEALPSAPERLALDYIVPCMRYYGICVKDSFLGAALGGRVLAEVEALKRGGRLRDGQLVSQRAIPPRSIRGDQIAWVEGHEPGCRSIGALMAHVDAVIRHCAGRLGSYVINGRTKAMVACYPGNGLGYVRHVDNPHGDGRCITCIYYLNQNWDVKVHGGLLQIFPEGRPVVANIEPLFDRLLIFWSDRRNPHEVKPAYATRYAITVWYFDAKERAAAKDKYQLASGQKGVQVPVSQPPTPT
Protocol: as §2

PHD2 [4] = target: T1, PHD2; test: Co-immunoprecipitation of HA-OS-9 with PHD2 in 293 cells; assay type: cell-based; conditions: anti-HA immunoprecipitates, immunoblot; FIG. 5
Protocol: as §2

PHD3 = target: T4, PHD3 (Homo sapiens, UniProt Q9H6Z9); test: Co-immunoprecipitation of HA-OS-9 with PHD3 in 293 cells; assay type: cell-based; conditions: anti-HA immunoprecipitates, immunoblot; FIG. 5
T4 construct: expressed in transfected cells; host or cells: 293 cells
T4 sequence (Q9H6Z9 whole entry): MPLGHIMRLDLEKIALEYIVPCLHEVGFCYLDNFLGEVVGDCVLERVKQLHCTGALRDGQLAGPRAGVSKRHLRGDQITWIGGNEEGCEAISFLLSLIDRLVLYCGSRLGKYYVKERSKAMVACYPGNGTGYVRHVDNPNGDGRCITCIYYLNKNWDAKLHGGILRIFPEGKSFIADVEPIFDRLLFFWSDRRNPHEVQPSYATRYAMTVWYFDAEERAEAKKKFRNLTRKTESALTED
Protocol: as §2

[5] = tested on: HIF-1α transactivation domains (residues 531-826); test: GAL4-dependent reporter (pGalA) transactivation assay; assay type: cell-based, human; conditions: co-transfection of OS-9 expression vector; FIG. 3B
Protocol: 293 or Hep3B cells were seeded onto 24-well plates at 8×10^4 cells per well of a 24-well plate. The following day, the cells were transfected with plasmid DNAs using Fugene-6 (Roche) for 293 and Lipofectamine Plus (Invitrogen) for Hep3B cells. After 24 h, the cells were exposed to 20% or 1% O2 for 24 h. Cells were lysed, and the luciferase activities were determined by multi-well luminescence reader (PerkinElmer), using the Dual-Luciferase Reporter Assay System (Promega). For p2.1 reporter assay, cells were co-transfected with 15 ng of control reporter pSV-Renilla, 135 ng of HIF-1 reporter p2.1, and expression vector encoding HA-OS-9, HIF-1α, or empty vector. Unless indicated otherwise, 200 ng of HIF-1α, 400 ng of HA-OS-9, 1 ng of PHD2, or 1 ng of HIF-1α triple mutant P402A/P564A/N803A (HIF-1α TM) expression vector was used for co-transfection. For pGalA reporter assays, Hep3B cells were co-transfected with 12.5 ng of pSV-Renilla, reporter 200 ng of pG5ElbLuc, 100 ng of expression vector encoding the GAL4 DNA-binding domain alone or fused to HIF-1α residues 531-826 (Jiang et al. 1997) and empty vector or vector encoding HA-OS-9. For immunoblot assays, 293 cells were seeded at 3×10^6 cells per 10-cm plate. The following day, the cells were co-transfected with expression vectors using Fugene-6. […]

PHD2 [6] = test: PHD2 protein levels by immunoblot in transfected 293 cells; assay type: cell-based, human; conditions: co-transfection of OS-9 vector; FIG. 7C
Protocol: 293 or Hep3B cells were seeded onto 24-well plates at 8×10^4 cells per well of a 24-well plate. The following day, the cells were transfected with plasmid DNAs using Fugene-6 (Roche) for 293 and Lipofectamine Plus (Invitrogen) for Hep3B cells. After 24 h, the cells were exposed to 20% or 1% O2 for 24 h. Cells were lysed, and the luciferase activities were determined by multi-well luminescence reader (PerkinElmer), using the Dual-Luciferase Reporter Assay System (Promega). For p2.1 reporter assay, cells were co-transfected with 15 ng of control reporter pSV-Renilla, 135 ng of HIF-1 reporter p2.1, and expression vector encoding HA-OS-9, HIF-1α, or empty vector. Unless indicated otherwise, 200 ng of HIF-1α, 400 ng of HA-OS-9, 1 ng of PHD2, or 1 ng of HIF-1α triple mutant P402A/P564A/N803A (HIF-1α TM) expression vector was used for co-transfection. […]
For in vitro VHL binding assay, preincubated GstA and 5 μl of [^35S]methionine-labeled VHL protein were mixed in a total volume of 300 μl of PBS-T with 1 mM desferrioxamine and incubated at 4° C. for 90 min. […] Beads were washed three times with PBS-T. Proteins were eluted in Laemmli sample buffer, fractionated by SDS-PAGE, and detected by autoradiography. […]

HIF-1α [7] = target: T2, HIF-1α; test: In vitro interaction (GST pull-down) assay of OS-9 with GST-HIF-1α fusion proteins; assay type: binding; parameters: made in house; host or cells: E. coli BL21-Gold(DE3)pLysS (GST fusion); rabbit reticulocyte lysate TNT T7 (HA-OS-9); conditions: increasing amounts of in vitro-translated OS-9, desferrioxamine present; FIG. 6C
Protocol: as §1
Target sequence in this assay (Q16665 531-826): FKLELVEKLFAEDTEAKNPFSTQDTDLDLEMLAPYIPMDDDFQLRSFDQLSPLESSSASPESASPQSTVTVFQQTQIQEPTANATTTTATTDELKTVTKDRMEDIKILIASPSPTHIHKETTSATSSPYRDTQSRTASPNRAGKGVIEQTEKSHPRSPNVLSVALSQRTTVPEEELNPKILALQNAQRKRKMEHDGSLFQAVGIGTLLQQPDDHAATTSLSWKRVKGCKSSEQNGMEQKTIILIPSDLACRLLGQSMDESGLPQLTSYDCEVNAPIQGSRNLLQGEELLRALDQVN

T1 sequence (Q9GZT9 whole entry): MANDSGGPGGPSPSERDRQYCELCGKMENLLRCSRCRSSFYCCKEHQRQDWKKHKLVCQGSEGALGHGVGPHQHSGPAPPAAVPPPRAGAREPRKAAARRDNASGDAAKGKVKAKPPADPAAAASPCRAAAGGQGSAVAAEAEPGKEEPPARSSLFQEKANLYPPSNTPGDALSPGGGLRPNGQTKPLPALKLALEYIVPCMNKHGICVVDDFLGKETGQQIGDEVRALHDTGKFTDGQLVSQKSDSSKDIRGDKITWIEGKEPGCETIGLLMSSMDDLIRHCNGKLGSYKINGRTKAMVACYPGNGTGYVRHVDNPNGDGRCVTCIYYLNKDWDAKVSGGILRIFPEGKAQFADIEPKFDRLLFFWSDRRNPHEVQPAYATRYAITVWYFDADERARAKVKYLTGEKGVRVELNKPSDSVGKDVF

- binding of PHD2 to GST-HIF-1α (531-826) (PHD2 [1]): increased binding
- binding of OS-9 to GST-HIF-1α (HIF-1α [2]; HIF-1α residues 1-329, 429-608, 531-610, and 786-826): did not bind
- binding of OS-9 to GST-HIF-1α (HIF-1α [2]; HIF-1α residues 531-826, 653-826, or 692-826): efficiently bound
- interaction of HA-OS-9 and HIF-1α in living cells (HIF-1α [3]): coimmunoprecipitation
- interaction of OS-9 with PHD1 (PHD1): interaction
- interaction of OS-9 with PHD2 (PHD2 [4]): interaction
- interaction of OS-9 with PHD3 (PHD3): interaction
- binding of OS-9 to GST-HIF-1α (531-826) (HIF-1α [7]): dose-dependent manner
B1: OS-9: human OS-9 protein (667-residue isoform), HA-tagged, from expression vector or in vitro-translated (protein)
chain: MAAETLLSSLLGLLLLGLLLPASLTGGVGSLNLEELSEMRYGIEILPLPVMGGQSQSSDVVIVSSKYKQRYECRLPAGAIHFQREREEETPAYQGPGIPELLSPMRDAPCLLKTKDWWTYEFCYGRHIQQYHMEDSEIKGEVLYLGYYQSAFDWDDETAKASKQHRLKRYHSQTYGNGSKCDLNGRPREAEVRFLCDEGAGISGDYIDRVDEPLSCSYVLTIRTPRLCPHPLLRPPPSAAPQAILCHPSLQPEEYMAYVQRQADSKQYGDKIIEELQDLGPQVWSETKSGVAPQKMAGASPTKDDSKDSDFWKMLNEPEDQAPGGEEVPAEEQDPSPEAADSASGAPNDFQNNVQVKVIRSPADLIRFIEELKGGTKKGKPNIGQEQPVDDAAEVPQREPEKERGDPERQREMEEEEDEDEDEDEDEDERQLLGEFEKELEGILLPSDRDRLRSEVKAGMERELENIIQETEKELDPDGLKKESERDRAMLALTSTLNKLIKRLEEKQSPELVKKHKKKRVVPKKPPPSPQPTEEDPEHRVRVRVTKLRLGGPNQDLTVLEMKRENPQLKQIEGLVKELLEREGLTAAGKIEIKIVRPWAEGTEEGARWLTDEDTRNLKEIFFNILVPGAEEAQKERQRQKELESNYRRVWGSPGGEGTGDLDEFDF
modifications: left off: small tags and cut ends
notes: human OS-9 protein (667-residue isoform), HA-tagged, from expression vector or in vitro-translated
- transactivation of GAL4-dependent reporter by pGalA [5]: no significant inhibitory effect
- PHD2 protein levels (PHD2 [6]): no effect

Reference: US20090202508A1, “NEGATIVE REGULATION OF HYPOXIA INDUCIBLE FACTOR 1 BY OS-9” (THE JOHNS HOPKINS UNIVERSITY, priority 2004, published 2009)
